Data set [1] deals with CfaR^ΔLuxR-HIS6 (Streptomyces scabies). Description: cross-linking; glutaraldehyde (1 μL of 2.3% w/v) added to 80 pmol purified protein in 20 mM sodium phosphate pH 7.5, 20 μL, 5 min at 37°C; stopped with Tris-HCl pH 8.0; SDS-PAGE (12%), Coomassie staining.
Data set [2] addresses T1, CfaRfull-HIS6 (Streptomyces scabies 87-22) (UniProt C9ZEC8).
T1 sequence: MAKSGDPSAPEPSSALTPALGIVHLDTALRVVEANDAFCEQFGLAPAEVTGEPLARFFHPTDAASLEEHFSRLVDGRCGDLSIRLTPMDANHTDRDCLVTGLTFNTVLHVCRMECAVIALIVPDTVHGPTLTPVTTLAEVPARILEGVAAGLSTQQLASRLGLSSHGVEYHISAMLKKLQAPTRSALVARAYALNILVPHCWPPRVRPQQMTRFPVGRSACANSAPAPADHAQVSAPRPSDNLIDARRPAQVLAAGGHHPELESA
Nature of the data set: EMSA. The following applies: LightShift Chemiluminescent EMSA kit per manufacturer; buffer, salt, pH and temperature not stated (protein stored in 20 mM sodium phosphate, 150 mM NaCl, 20% …). A general note: A gel shift assay detects complexes by their altered migration in electrophoresis.

In data set [3] the target is CfaR^full-HIS6 (Streptomyces scabies). Description: cross-linking; glutaraldehyde (1 μL of 2.3% w/v) added to 80 pmol purified protein in 20 mM sodium phosphate pH 7.5, 20 μL, 5 min at 37°C; stopped with Tris-HCl pH 8.0; SDS-PAGE (12%), Coomassie staining.
For the next data set, the target named is CfaRfull-HIS6 (Streptomyces scabies 87-22, UniProt C9ZEC8 1-265). Description: EMSA; 0.1 pmol probe, 2 pmol protein; LightShift Chemiluminescent EMSA kit per manufacturer; buffer, salt, pH and temperature not stated (protein stored in 20 mM sodium phosphate, 150 mM NaCl, 20% glycerol, pH 7.8). The following applies: protein: recombinant; tags: C-terminal His6; chain copies: 2; blunt.

The term stoichiometry N denotes a count of units in the complex or per binding partner. The molecule CfaR^ΔLuxR-HIS6 (domain or fragment) displayed a stoichiometry N in data set [1] of 2.
Regarding “GACCTTCGTTCTGTAGCCCTTGTATGGTCGCATTGCCTCCGCAGGTCGACCCCTTTCGGCACCATAGGAGACCCTCTTGGCGAACATCGAATCGACCATCAAGCACATCCTGGTCGACGATCTCTTCATCACTGTGCCG (double strand) [fragment b]”, the binding entry in data set [2] was “no binding”.
As to CfaR^full-HIS6 (natural protein), the stoichiometry N in data set [3] is 2.
As to “GCACAGGAAGGAGGAGAACCCCTCACCTCGGGCCCTTGGACCCGACACACCCGCAGCGCGTGCGACGGTTCCTGCGCCGGCCGGCCTGACAAACCAGGGCGAGACGCCGCATCTGCGGAACCGGTCGACCCGCAGACGAATCGTGGCCGACGCCAACCCGAATGCGGG (double strand) [fragment c]”, in data set [2], the binding entry is listed as “no binding”.

B1: P1 probe (LC12/LC13) (dsDNA)
DNA 1: CGAATGCGGGGACTAGGGATTCTCCTAGTCGACCTTCGTT
DNA 2: AACGAAGGTCGACTAGGAGAATCCCTAGTCCCCGCATTCG
As to B1, the binding result in the data set with CfaRfull-HIS6 is reported as “binds”.

B2: P2 control probe (LC14/LC15) (dsDNA)
DNA 1: TGTGGTTCGCGTCCATGGGTGTCAGGCGGATGCTTAAGTC
DNA 2: GACTTAAGCATCCGCCTGACACCCATGGACGCGAACCACA
B2: the binding result in the data set with CfaRfull-HIS6 is listed as “no binding”.

The values are drawn from publication PMC4380410.
